# B1: dynamin-2 (human Dyn2 isoform 1), wild type [human] / GST-tagged SH3 domain of endophilin [mouse] (parent complex)
# chain 1: MGNRGMEELIPLVNKLQDAFSSIGQSCHLDLPQIAVVGGQSAGKSSVLENFVGRDFLPRGSGIVTRRPLILQLIFSKTEHAEFLHCKSKKFTDFDEVRQEIEAETDRVTGTNKGISPVPINLRVYSPHVLNLTLIDLPGITKVPVGDQPPDIEYQIKDMILQFISRESSLILAVTPANMDLANSDALKLAKEVDPQGLRTIGVITKLDLMDEGTDARDVLENKLLPLRRGYIGVVNRSQKDIEGKKDIRAALAAERKFFLSHPAYRHMADRMGTPHLQKTLNQQLTNHIRESLPALRSKLQSQLLSLEKEVEEYKNFRPDDPTRKTKALLQMVQQFGVDFEKRIEGSGDQVDTLELSGGARINRIFHERFPFELVKMEFDEKDLRREISYAIKNIHGVRTGLFTPDLAFEAIVKKQVVKLKEPCLKCVDLVIQELINTVRQCTSKLSSYPRLREETERIVTTYIREREGRTKDQILLLIDIEQSYINTNHEDFIGFANAQQRSTQLNKKRAIPNQGEILVIRRGWLTINNISLMKGGSKEYWFVLTAESLSWYKDEEEKEKKYMLPLDNLKIRDVEKGFMSNKHVFAIFNTEQRNVYKDLRQIELACDSQEDVDSWKASFLRAGVYPEKDQAENEDGAQENTFSMDPQLERQVETIRNLVDSYVAIINKSIRDLMPKTIMHLMINNTKAFIHHELLAYLYSSADQSSLMEESADQAQRRDDMLRMYHALKEALNIIGDISTSTVSTPVPPPVDDTWLQSASSHSPTPQRRPVSSIHPPGRPPAVRGPTPGPPLIPVPVGAAASFSAPPIPSRPGPQSVFANSDLFPAPPQIPSRPVRIPPGIPPGVPSRRPPAAPSRPTIIRPAEPSLLD
# chain 2: not shown
# Variants of: B1
# Assay: GST pulldown; 12 µg GST-endophilin-SH3, 6 µg purified Dyn2; parent: 1; read off a plot
row,Variant,ratio to parent
1,chain 1 S848E,~0.93
2,chain 1 S848A,~1.1

# From publication PMC9712776 (2022)
